This is an account of results in article PMC11774035.

In this data set the target is T1, His6-Lrp (Klebsiella oxytoca MIT 09-7231) (UniProt A0A181XPK7).
T1 sequence: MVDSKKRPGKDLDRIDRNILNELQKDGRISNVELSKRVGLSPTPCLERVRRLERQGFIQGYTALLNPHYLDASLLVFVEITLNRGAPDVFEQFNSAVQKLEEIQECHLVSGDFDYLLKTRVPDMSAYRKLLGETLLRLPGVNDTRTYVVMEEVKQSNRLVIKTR
Nature of the data set: EMSA. Particulars: 40 mM HEPES ([…], room temperature 20 min.

Take “TCTCTCACTCGAAATTTAACAGGTTTTTCGTTTGTTTTTTAACAAAAAAGCGATGAGAAAGTGCTATTCCTTGTCTGTTTACTGGACATGAAAGACGATACGGTTTGCACAAATATTGCACGCCAATGAGTGCATTATGTCAATCAAAA (double strand) [aroX-npsA fragment 1]”: the binding entry is “no binding”. Then “TCTCTCCTGGAGAATTAGGAACGTTCACACGCATAAAATCTTCTCTTGAAGAAGAAATTAAAGATCTAAAGAAATGCCGCCAGCTTACCGTGAGATGCTTCTAAGAAAACACCGCAAAACAAGCAACATATAAGCAACACAAACATAACT (double strand) [aroX-npsA fragment 3]”, with “no binding”.
